This experiment addresses T1, tissue-type plasminogen activator (tPA) (human, UniProt P00750 36-562).
T1 construct: Full-length commercial tPA; also called Actilyse; Alteplase
The experiment can be described thus: ELISA, therapeutic coated on Nunc Immobilizer plate, concentration series of tPA, one-site binding fit. On the procedure: Plates were washed twice with Tris buffered saline pH 7.2 containing 0.1% Tween20 (TBST) and blocked with PBS containing 1% Tween20 for 1 hour at room temperature. […] Plates were washed five times with TBST and incubated with peroxidase labeled anti-mouse immunoglobulins (RAMPO; DAKOCytomation, Glostrup, Denmark) diluted 1:3000 in PBST for 30 minutes at room temperature. Plates were washed five times with PBS 0.1% Tween20, and stained with 100 μL/well of tetramethyl-benzidine (TMB) substrate (Biosource Europe, Nivelles, Belgium). The reaction was terminated with 50 μL/well of 2 M H₂SO₄ and substrate conversion was read at 450 nm on a Spectramax340 microplate reader. Curves were fitted with a one-site binding model (GraphPad Prism version 4.02 for Windows, Graphpad Software, Calif., USA) from which Kd and Bmax were determined.

T1 sequence (P00750 36-562 limits assumed): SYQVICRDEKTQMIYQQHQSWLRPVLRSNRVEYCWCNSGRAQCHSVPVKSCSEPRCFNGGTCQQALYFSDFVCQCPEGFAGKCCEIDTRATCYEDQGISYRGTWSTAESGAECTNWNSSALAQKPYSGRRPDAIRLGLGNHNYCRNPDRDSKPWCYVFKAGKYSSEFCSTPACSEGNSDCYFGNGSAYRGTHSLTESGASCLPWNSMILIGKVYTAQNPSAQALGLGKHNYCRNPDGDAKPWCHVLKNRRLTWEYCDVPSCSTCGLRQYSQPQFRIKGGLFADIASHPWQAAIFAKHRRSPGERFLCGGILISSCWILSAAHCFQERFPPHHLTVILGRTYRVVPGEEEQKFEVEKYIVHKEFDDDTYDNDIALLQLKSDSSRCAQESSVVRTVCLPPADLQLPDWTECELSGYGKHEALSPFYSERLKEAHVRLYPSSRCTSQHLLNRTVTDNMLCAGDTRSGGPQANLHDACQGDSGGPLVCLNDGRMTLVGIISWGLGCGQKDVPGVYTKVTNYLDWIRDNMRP

B1: human coagulation factor VIII (FVIII) (Aafact) (other)
chain 1: ATRRYYLGAVELSWDYMQSDLGELPVDARFPPRVPKSFPFNTSVVYKKTLFVEFTDHLFNIAKPRPPWMGLLGPTIQAEVYDTVVITLKNMASHPVSLHAVGVSYWKASEGAEYDDQTSQREKEDDKVFPGGSHTYVWQVLKENGPMASDPLCLTYSYLSHVDLVKDLNSGLIGALLVCREGSLAKEKTQTLHKFILLFAVFDEGKSWHSETKNSLMQDRDAASARAWPKMHTVNGYVNRSLPGLIGCHRKSVYWHVIGMGTTPEVHSIFLEGHTFLVRNHRQASLEISPITFLTAQTLLMDLGQFLLFCHISSHQHDGMEAYVKVDSCPEEPQLRMKNNEEAEDYDDDLTDSEMDVVRFDDDNSPSFIQIRSVAKKHPKTWVHYIAAEEEDWDYAPLVLAPDDRSYKSQYLNNGPQRIGRKYKKVRFMAYTDETFKTREAIQHESGILGPLLYGEVGDTLLIIFKNQASRPYNIYPHGITDVRPLYSRRLPKGVKHLKDFPILPGEIFKYKWTVTVEDGPTKSDPRCLTRYYSSFVNMERDLASGLIGPLLICYKESVDQRGNQIMSDKRNVILFSVFDENRSWYLTENIQRFLPNPAGVQLEDPEFQASNIMHSINGYVFDSLQLSVCLHEVAYWYILSIGAQTDFLSVFFSGYTFKHKMVYEDTLTLFPFSGETVFMSMENPGLWILGCHNSDFRNRGMTALLKVSSCDKNTGDYYEDSYEDISAYLLSKNNAIEPRSFSQNSRHPSTRQKQFNATTIPENDIEKTDPWFAHRTPMPKIQNVSSSDLLMLLRQSPTPHGLSLSDLQEAKYETFSDDPSPGAIDSNNSLSEMTHFRPQLHHSGDMVFTPESGLQLRLNEKLGTTAATELKKLDFKVSSTSNNLISTIPSDNLAAGTDNTSSLGPPSMPVHYDSQLDTTLFGKKSSPLTESGGPLSLSEENNDSKLLESGLMNSQESSWGKNVSSTESGRLFKGKRAHGPALLTKDNALFKVSISLLKTNKTSNNSATNRKTHIDGPSLLIENSPSVWQNILESDTEFKKVTPLIHDRMLMDKNATALRLNHMSNKTTSSKNMEMVQQKKEGPIPPDAQNPDMSFFKMLFLPESARWIQRTHGKNSLNSGQGPSPKQLVSLGPEKSVEGQNFLSEKNKVVVGKGEFTKDVGLKEMVFPSSRNLFLTNLDNLHENNTHNQEKKIQEEIEKKETLIQENVVLPQIHTVTGTKNFMKNLFLLSTRQNVEGSYDGAYAPVLQDFRSLNDSTNRTKKHTAHFSKKGEEENLEGLGNQTKQIVEKYACTTRISPNTSQQNFVTQRSKR
chain 2: EITRTTLQSDQEEIDYDDTISVEMKKEDFDIYDEDENQSPRSFQKKTRHYFIAAVERLWDYGMSSSPHVLRNRAQSGSVPQFKKVVFQEFTDGSFTQPLYRGELNEHLGLLGPYIRAEVEDNIMVTFRNQASRPYSFYSSLISYEEDQRQGAEPRKNFVKPNETKTYFWKVQHHMAPTKDEFDCKAWAYFSDVDLEKDVHSGLIGPLLVCHTNTLNPAHGRQVTVQEFALFFTIFDETKSWYFTENMERNCRAPCNIQMEDPTFKENYRFHAINGYIMDTLPGLVMAQDQRIRWYLLSMGSNENIHSIHFSGHVFTVRKKEEYKMALYNLYPGVFETVEMLPSKAGIWRVECLIGEHLHAGMSTLFLVYSNKCQTPLGMASGHIRDFQITASGQYGQWAPKLARLHYSGSINAWSTKEPFSWIKVDLLAPMIIHGIKTQGARQKFSSLYISQFIIMYSLDGKKWQTYRGNSTGTLMVFFGNVDSSGIKHNIFNPPIIARYIRLHPTHYSIRSTLRMELMGCDLNSCSMPLGMESKAISDAQITASSYFTNMFATWSPSKARLHLQGRSNAWRPQVNNPKEWLQVDFQKTMKVTGVTTQGVKSLLTSMYVKEFLISSSQDGHQWTLFFQNGKVKVFQGNQDSFTPVVNSLDPPLLTRYLRIHPQSWVHQIALRMEVLGCEAQDLY
Consider B1, for which the Kd stood at 230 nM.

B2: abciximab (ReoPro) (Fab, V domains shown)
VH: EVQLQQSGTVLARPGASVKMSCEASGYTFTNYWMHWVKQRPGQGLEWIGAIYPGNSDTSYIQKFKGKAKLTAVTSTTSVYMELSSLTNEDSAVYYCTLYDGYYVFAYWGQGTLVTVSA
VL: EIVLTQSPVTLSVTPGDSVSLSCRASRDISNNLHWFQQTSHESPRLLIKYASQSMSGIPSRFSGSGSGTDFTLSINSVETEDFGMYFCQQTNSWPYTFGGGTKLEIK
The molecule B2 registered a Kd of 216 nM.

Values taken from US20080220446A1 (published 2008).
